Assays:
Type in all cases: cell-based, human
JAK2 V617F SET2 cells = assay: Cell proliferation, trypan blue exclusion; details: 2, 10 or 20 μg/mL
Description: (§1) A. Cytokine dependent TF-1 TpoR cells with an overexpression of WT CALR cultured in the absence of TPO, 10 ng/ml hTPO and 10 or 20 μg/mL 4D7 anti-mutant CALR antibody or 20 μg/mL control IgG antibody for 5 days and the number of trypan blue negative cells were counted every 24 hours (n=3). B. Cytokine dependent TF-1 CALR^del52 cells, lacking TpoR were cultured in the presence of 2 ng/mL GM-CSF and 10 or 20 μg/mL 4D7 or 20 μg/mL control IgG antibody (n=3). C. Cytokine dependent TF-1 CALR^del61 cells, lacking TpoR were cultured in the presence of 2 ng/ml GM-CSF and 10 or 20 μg/mL 4D7 or 20 μg/mL control IgG antibody (n=3). D. MARIMO cells from which the CALR^del61 mutation was originally amplified were cultured in the presence of 2, 10 or 20 μg/mL 4D7 or 20 μg/mL control IgG antibody (n=3). E. Cytokine independent SET2 cells which harbour the pathogenic JAK2^V617F mutation were cultured in the presence of 2, 10 or 20 μg/mL 4D7 or 20 μg/mL control IgG antibody (n=3). F. Cytokine independent TF-1 PTPN11^E76K cells were cultured in the presence of 10 or 20 μg/mL 4D7 or 20 μg/mL control IgG antibody (n=3).
(§2) In brief, cells were seeded at 5×10^4/mL in standard growth media, with any necessary cytokines, and the addition of 20 μg/mL IgG or 2, 10 or 20 μg/mL 4D7. Cells were seeded in triplicate and each well was counted in triplicate every 24 hours for 5 days using trypan blue exclusion.

MARIMO cells = assay: Cell proliferation, trypan blue exclusion; details: 2, 10 or 20 μg/mL
Description: as §1, §2

[1] = system: TF-1 CALR^del52 cells, lacking TpoR; assay: Cell proliferation, trypan blue exclusion; details: 2 ng/mL GM-CSF; 10 or 20 μg/mL
Description: as §1, §2

[2] = system: TF-1 CALR^del61 cells, lacking TpoR; assay: Cell proliferation, trypan blue exclusion; details: 2 ng/ml GM-CSF; 10 or 20 μg/mL
Description: as §1, §2

[3] = system: TF-1 cells with overexpression of wild type CALR; assay: Cell proliferation, trypan blue exclusion; details: 10 or 20 μg/mL; 10 ng/ml hTPO
Description: as §1, §2

[4] = system: TF-1 expressing the PTPN11 E76K mutation; assay: Cell proliferation, trypan blue exclusion; details: 10 or 20 μg/mL
Description: as §1, §2

[5] = system: ruxolitinib-resistant TF-1 TpoR CALR^del61 cells; assay: Colony formation in MethoCult; details: after 72 hours of treatment
Description: A. Graph showing effect of ruxolitinib on megakaryocyte differentiation at 50 and 100 nM in healthy CD34+ cells (n=4). B. Effect of 4D7 on TPO-dependent megakaryocyte differentiation of healthy CD34+ cells cultured with 20 μg/mL 4D7 or IgG control (n=4). C. Total numbers of hematopoietic colonies plated in MethoCult from healthy cord blood after treatment with 4D7 or IgG. CFU-GM, colony forming unit-granulocyte macrophage: BFU-E, blast forming unit-erythroid: CFU-GEMM, colony forming unit granulocyte, erythroid, monocyte, megakaryocyte (n=3).D. CD41+megakaryocyte colonies from healthy CD34+ cells observed on collagen matrix after 4D7 treatment. Colonies were cultured in TPO, SCF. IL-9 and IL-3. E. Number of megakaryocyte colony forming units observed in MegaCult assay after treatment of healthy cord blood CD34+ cells with either IgG or 4D7 (n=3). F. Western blot showing signalling in ruxolitinib-resistant TF-1 TpoR CALR^del61 compared to ruxolitinib sensitive TF-1 TpoR CALR^del61 cells after treatment with 100 nM ruxolitinib for 16 hours or 30 minutes and blotted for phospho-STAT5, total STAT5, phospho-ERK, total ERK and actin as indicated. Ruxolitinib-sensitive cells were non-viable after 16 hours of treatment. […] Cells counted using Trypan Blue exclusion with replicate wells (n=3). […]

B1: 4D7: rat monoclonal IgG2a antibody against the mutant CALR neoepitope; VH SEQ ID NO: 5, VL SEQ ID NO: 7 (antibody, listed as Rattus rattus, V domains shown)
VH: QVQLQQSGAELAKPGSSVKISCKASGYTFTNYDMSWIKQRPGQALEWIGAINPGNGVTDYNEKFRGKATLTVDKSSSTAFMQLSSLTPEDTAVYHCAREYRDNYGYFDYWGQGVMVTVSS
VL: DIVLTQTPVSLSVTLGDQASISCRSSQSLEYSDGYTYLDWFLQKPGQSPQLLIYEVSSRFSGVPDRFIGRGSGTDFTLKISRVEPEDLGVYYCFQATHDPFTFGSGTKLEIK
inhibition of proliferation (JAK2 V617F SET2 cells): no inhibition
inhibition of proliferation (MARIMO cells): did not show inhibition
effect on proliferation [1]: unaffected
effect on proliferation [2]: unaffected
inhibition of proliferation [3]: No inhibition
inhibition of proliferation [4]: no inhibition
inhibitory activity on colony formation [5]: strong inhibitory activity
